Substitutions are numbered along the chain they refer to. Numbered stars: 1 amine (or outer) side, 2 acyl side, 3 side chain; on linkers, the order of the positions; unused ones are H or OH. Square brackets hold non-standard residues; d marks the D form. Side chains are listed from the residue outwards. Ends that are not written are not given here. * marks the point of attachment. C20 diacid = O=C(O)CCCCCCCCCCCCCCCCCCC(=O)*; αMePhe(2-F) = C[C@](N)(Cc1ccccc1F)C(=O)O; γGlu = O=C(O)[C@H](CCC(=O)[*:2])N[*:1]; Desaminohistidyl = O=C(CCc1c[nH]cn1)*; αMeF = C[C@](N)(Cc1ccccc1)C(=O)O; αMeL = CC(C)C[C@](C)(N)C(=O)O; cTA = not defined here; AEEA = NCCOCCOCC(=O)O; Aib = CC(C)(N)C(=O)O
T1: human GIP receptor (human, UniProt P48546 22-466)
T1 construct: whole, on cells; Used as crude membranes of stably transfected CHO cells; also called hGIPR
T1 sequence (looked up): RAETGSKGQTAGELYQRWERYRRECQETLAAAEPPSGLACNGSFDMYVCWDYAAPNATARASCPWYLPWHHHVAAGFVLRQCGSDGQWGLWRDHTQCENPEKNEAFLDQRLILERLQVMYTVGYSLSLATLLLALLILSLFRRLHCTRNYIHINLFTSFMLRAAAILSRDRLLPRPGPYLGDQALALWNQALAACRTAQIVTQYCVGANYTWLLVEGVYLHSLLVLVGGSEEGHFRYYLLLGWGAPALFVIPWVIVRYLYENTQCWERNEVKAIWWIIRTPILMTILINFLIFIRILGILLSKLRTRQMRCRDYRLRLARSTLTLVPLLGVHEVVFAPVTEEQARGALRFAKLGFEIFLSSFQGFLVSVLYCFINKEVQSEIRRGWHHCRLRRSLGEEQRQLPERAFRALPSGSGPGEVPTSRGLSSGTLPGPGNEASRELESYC

B1: Example 93 (peptide)
peptide: Y[Aib]EGT[αMeF]TSDYSILK([AEEA-AEEA-γGlu-C20 diacid])DKIAQ[Aib]AFIEYLIEGG-NH2
modifications: N-terminus assumed
SMILES: CC[C@H](C)[C@H](NC(=O)[C@H](CCCCN)NC(=O)[C@H](CC(=O)O)NC(=O)[C@H](CCCCNC(=O)COCCOCCNC(=O)COCCOCCNC(=O)CC[C@H](NC(=O)CCCCCCCCCCCCCCCCCCC(=O)O)C(=O)O)NC(=O)[C@H](CC(C)C)NC(=O)[C@@H](NC(=O)[C@H](CO)NC(=O)[C@H](Cc1ccc(O)cc1)NC(=O)[C@H](CC(=O)O)NC(=O)[C@H](CO)NC(=O)[C@@H](NC(=O)[C@](C)(Cc1ccccc1)NC(=O)[C@@H](NC(=O)CNC(=O)[C@H](CCC(=O)O)NC(=O)C(C)(C)NC(=O)[C@@H](N)Cc1ccc(O)cc1)[C@@H](C)O)[C@@H](C)O)[C@@H](C)CC)C(=O)N[C@@H](C)C(=O)N[C@@H](CCC(N)=O)C(=O)NC(C)(C)C(=O)N[C@@H](C)C(=O)N[C@@H](Cc1ccccc1)C(=O)N[C@H](C(=O)N[C@@H](CCC(=O)O)C(=O)N[C@@H](Cc1ccc(O)cc1)C(=O)N[C@@H](CC(C)C)C(=O)N[C@H](C(=O)N[C@@H](CCC(=O)O)C(=O)NCC(=O)NCC(N)=O)[C@@H](C)CC)[C@@H](C)CC
B2: Example 121 (peptide)
peptide: Y[Aib]EGT[αMeF]TSDYSI[αMeL]LDEK([AEEA-AEEA-γGlu-C20 diacid])AQQAFIEYLIEGGPSSGAPPPS-NH2
modifications: N-terminus assumed
SMILES: CC[C@H](C)[C@H](NC(=O)[C@H](CC(C)C)NC(=O)[C@H](Cc1ccc(O)cc1)NC(=O)[C@H](CCC(=O)O)NC(=O)[C@@H](NC(=O)[C@H](Cc1ccccc1)NC(=O)[C@H](C)NC(=O)[C@H](CCC(N)=O)NC(=O)[C@H](CCC(N)=O)NC(=O)[C@H](C)NC(=O)[C@H](CCCCNC(=O)COCCOCCNC(=O)COCCOCCNC(=O)CC[C@H](NC(=O)CCCCCCCCCCCCCCCCCCC(=O)O)C(=O)O)NC(=O)[C@H](CCC(=O)O)NC(=O)[C@H](CC(=O)O)NC(=O)[C@H](CC(C)C)NC(=O)[C@](C)(CC(C)C)NC(=O)[C@@H](NC(=O)[C@H](CO)NC(=O)[C@H](Cc1ccc(O)cc1)NC(=O)[C@H](CC(=O)O)NC(=O)[C@H](CO)NC(=O)[C@@H](NC(=O)[C@](C)(Cc1ccccc1)NC(=O)[C@@H](NC(=O)CNC(=O)[C@H](CCC(=O)O)NC(=O)C(C)(C)NC(=O)[C@@H](N)Cc1ccc(O)cc1)[C@@H](C)O)[C@@H](C)O)[C@@H](C)CC)[C@@H](C)CC)C(=O)N[C@@H](CCC(=O)O)C(=O)NCC(=O)NCC(=O)N1CCC[C@H]1C(=O)N[C@@H](CO)C(=O)N[C@@H](CO)C(=O)NCC(=O)N[C@@H](C)C(=O)N1CCC[C@H]1C(=O)N1CCC[C@H]1C(=O)N1CCC[C@H]1C(=O)N[C@@H](CO)C(N)=O
B3: Example 117 (peptide)
peptide: Y[Aib]EGT[αMeF]TSDYSI[Aib]LDEK([AEEA-AEEA-γGlu-C20 diacid])AQ[Aib]AFIEYLIEGGPSSGAPPPS-NH2
modifications: N-terminus assumed
SMILES: CC[C@H](C)[C@H](NC(=O)[C@H](CC(C)C)NC(=O)[C@H](Cc1ccc(O)cc1)NC(=O)[C@H](CCC(=O)O)NC(=O)[C@@H](NC(=O)[C@H](Cc1ccccc1)NC(=O)[C@H](C)NC(=O)C(C)(C)NC(=O)[C@H](CCC(N)=O)NC(=O)[C@H](C)NC(=O)[C@H](CCCCNC(=O)COCCOCCNC(=O)COCCOCCNC(=O)CC[C@H](NC(=O)CCCCCCCCCCCCCCCCCCC(=O)O)C(=O)O)NC(=O)[C@H](CCC(=O)O)NC(=O)[C@H](CC(=O)O)NC(=O)[C@H](CC(C)C)NC(=O)C(C)(C)NC(=O)[C@@H](NC(=O)[C@H](CO)NC(=O)[C@H](Cc1ccc(O)cc1)NC(=O)[C@H](CC(=O)O)NC(=O)[C@H](CO)NC(=O)[C@@H](NC(=O)[C@](C)(Cc1ccccc1)NC(=O)[C@@H](NC(=O)CNC(=O)[C@H](CCC(=O)O)NC(=O)C(C)(C)NC(=O)[C@@H](N)Cc1ccc(O)cc1)[C@@H](C)O)[C@@H](C)O)[C@@H](C)CC)[C@@H](C)CC)C(=O)N[C@@H](CCC(=O)O)C(=O)NCC(=O)NCC(=O)N1CCC[C@H]1C(=O)N[C@@H](CO)C(=O)N[C@@H](CO)C(=O)NCC(=O)N[C@@H](C)C(=O)N1CCC[C@H]1C(=O)N1CCC[C@H]1C(=O)N1CCC[C@H]1C(=O)N[C@@H](CO)C(N)=O
B4: Example 106 (peptide)
peptide: [Desaminohistidyl][Aib]EGTFTSDYSILLDKK([AEEA-AEEA-γGlu-C20 diacid])AQ[Aib]AFIEYLIEGGPSSGAPPPS-NH2
SMILES: CC[C@H](C)[C@H](NC(=O)[C@H](CC(C)C)NC(=O)[C@H](Cc1ccc(O)cc1)NC(=O)[C@H](CCC(=O)O)NC(=O)[C@@H](NC(=O)[C@H](Cc1ccccc1)NC(=O)[C@H](C)NC(=O)C(C)(C)NC(=O)[C@H](CCC(N)=O)NC(=O)[C@H](C)NC(=O)[C@H](CCCCNC(=O)COCCOCCNC(=O)COCCOCCNC(=O)CC[C@H](NC(=O)CCCCCCCCCCCCCCCCCCC(=O)O)C(=O)O)NC(=O)[C@H](CCCCN)NC(=O)[C@H](CC(=O)O)NC(=O)[C@H](CC(C)C)NC(=O)[C@H](CC(C)C)NC(=O)[C@@H](NC(=O)[C@H](CO)NC(=O)[C@H](Cc1ccc(O)cc1)NC(=O)[C@H](CC(=O)O)NC(=O)[C@H](CO)NC(=O)[C@@H](NC(=O)[C@H](Cc1ccccc1)NC(=O)[C@@H](NC(=O)CNC(=O)[C@H](CCC(=O)O)NC(=O)C(C)(C)NC(=O)CCc1c[nH]cn1)[C@@H](C)O)[C@@H](C)O)[C@@H](C)CC)[C@@H](C)CC)C(=O)N[C@@H](CCC(=O)O)C(=O)NCC(=O)NCC(=O)N1CCC[C@H]1C(=O)N[C@@H](CO)C(=O)N[C@@H](CO)C(=O)NCC(=O)N[C@@H](C)C(=O)N1CCC[C@H]1C(=O)N1CCC[C@H]1C(=O)N1CCC[C@H]1C(=O)N[C@@H](CO)C(N)=O
B5: Example 100 (peptide)
peptide: YXEGTXTSDYSIXLDEKAQXAFIEYLIEGG
modifications: Aib2; αMeF6; αMeL13; K17((2-[2-(2-Amino-ethoxy)-ethoxy]-acetyl)2-(γ-Glu)-CO-(CH2)18-CO2H); Aib20; C-terminal NH2
B6: Example 104 (peptide)
peptide: B5 peptide with A21E
modifications: Aib2; αMeF(2F)6; αMeL13; K17((2-[2-(2-Amino-ethoxy)-ethoxy]-acetyl)2-(γ-Glu)-CO-(CH2)16-CO2H); Aib20; C-terminal NH2
B7: Example 99 (peptide)
peptide: B5 peptide with E16K
modifications: Aib2; αMeF6; αMeL13; K17((2-[2-(2-Amino-ethoxy)-ethoxy]-acetyl)2-(γ-Glu)-CO-(CH2)18-CO2H); Aib20; C-terminal NH2
B8: Example 103 (peptide)
peptide: B5 peptide with A21E
modifications: Aib2; αMeF(2F)6; αMeL13; K17((2-[2-(2-Amino-ethoxy)-ethoxy]-acetyl)2-(γ-Glu)-CO-(CH2)18-CO2H); Aib20; C-terminal NH2
B9: Example 101 (peptide)
peptide: Y[Aib]EGT[αMePhe(2-F)]TSDYSI[Aib]LDEK([AEEA-AEEA-γGlu-C20 diacid])AQ[Aib]AFIEYLIEGG-NH2
modifications: N-terminus assumed
SMILES: CC[C@H](C)[C@H](NC(=O)[C@H](CC(C)C)NC(=O)[C@H](Cc1ccc(O)cc1)NC(=O)[C@H](CCC(=O)O)NC(=O)[C@@H](NC(=O)[C@H](Cc1ccccc1)NC(=O)[C@H](C)NC(=O)C(C)(C)NC(=O)[C@H](CCC(N)=O)NC(=O)[C@H](C)NC(=O)[C@H](CCCCNC(=O)COCCOCCNC(=O)COCCOCCNC(=O)CC[C@H](NC(=O)CCCCCCCCCCCCCCCCCCC(=O)O)C(=O)O)NC(=O)[C@H](CCC(=O)O)NC(=O)[C@H](CC(=O)O)NC(=O)[C@H](CC(C)C)NC(=O)C(C)(C)NC(=O)[C@@H](NC(=O)[C@H](CO)NC(=O)[C@H](Cc1ccc(O)cc1)NC(=O)[C@H](CC(=O)O)NC(=O)[C@H](CO)NC(=O)[C@@H](NC(=O)[C@](C)(Cc1ccccc1F)NC(=O)[C@@H](NC(=O)CNC(=O)[C@H](CCC(=O)O)NC(=O)C(C)(C)NC(=O)[C@@H](N)Cc1ccc(O)cc1)[C@@H](C)O)[C@@H](C)O)[C@@H](C)CC)[C@@H](C)CC)C(=O)N[C@@H](CCC(=O)O)C(=O)NCC(=O)NCC(N)=O
B10: Example 107 (peptide)
peptide: XXEGTFTSDYSILLDKKAQXAFIEYLIEGGPSSGAPPPS
modifications: DesTyr1; Aib2; K17((2-[2-(2-Amino-ethoxy)-ethoxy]-acetyl)2-(γ-Glu)-CO-(CH2)18-CO2H); Aib20; C-terminal NH2

Tests used:
human GIP receptor = target: T1, human GIP receptor; assay: SPA, [125I]-GIP displacement, hGIPR membranes
human glucagon receptor = target: T2, human glucagon receptor (human, UniProt P47871 26-477); assay: SPA, [125I]-Gcg displacement, hGcgR membranes
T2 construct: whole, on cells; Used as crude membranes of stably transfected HEK293 cells; also called hGcgR; hGLcgR
T2 sequence (P47871 26-477): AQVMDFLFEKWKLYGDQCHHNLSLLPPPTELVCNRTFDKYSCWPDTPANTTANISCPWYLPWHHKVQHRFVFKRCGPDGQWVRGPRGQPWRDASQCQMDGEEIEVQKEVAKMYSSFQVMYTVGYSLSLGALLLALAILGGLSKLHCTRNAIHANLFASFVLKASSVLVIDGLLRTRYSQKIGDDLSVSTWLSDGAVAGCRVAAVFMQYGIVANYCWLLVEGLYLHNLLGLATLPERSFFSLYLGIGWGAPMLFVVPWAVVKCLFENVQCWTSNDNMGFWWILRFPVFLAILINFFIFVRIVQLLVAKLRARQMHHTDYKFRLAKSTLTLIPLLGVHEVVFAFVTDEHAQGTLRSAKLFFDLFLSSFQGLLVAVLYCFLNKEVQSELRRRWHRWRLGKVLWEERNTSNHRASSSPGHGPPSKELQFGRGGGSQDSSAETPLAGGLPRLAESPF

human GLP-1 receptor = target: T3, human GLP-1 receptor (human, UniProt P43220 24-463); assay: SPA, [125I]-GLP-1 displacement, hGLP-1R membranes
T3 construct: whole, on cells; Used as crude membranes of stably transfected HEK293 cells; also called hGLP1R; hGLP-1R

| Binder | Ki (human GIP receptor) [nM] | Ki (human glucagon receptor) [nM] | Ki (human GLP-1 receptor) [nM] |
| --- | --- | --- | --- |
| B1 | 0.0859 | 15.7 | 1.89 |
| B2 | 0.177 | 51.9 | 3.16 |
| B3 | 0.0497 | 192 | 6.96 |
| B4 | 0.179 | 515 | 1.2 |
| B5 | 0.115 | 44 | 4.13 |
| B6 | 0.0565 | 123 | 3.91 |
| B7 | 0.027 | 23.6 | 1.15 |
| B8 | 0.0645 | 40.3 | 6.68 |
| [Desaminohistidyl][Aib]EGTFTSDYSILLDKK([AEEA-AEEA-γGlu-C20 diacid])AQ[Aib]AFIEYLIEGGPSSGAPPPS-NH2 (also: reversed amide ψ[NHCO] between residues 1 and 2) [Example 105] | 0.119 | 20.4 | 0.871 |
| B9 | 0.0953 | 117 | 8.1 |
| Y[Aib][cTA]GT[αMeF]TSDYSI[αMeL]LDEK([AEEA-AEEA-γGlu-C20 diacid])AQ[Aib]AFIEYLIEGGPSSGAPPPS-NH2 (reading uncertain) [Example 120] | 0.11 | 93.6 | 11.7 |
| B10 | 0.0425 | 303 | 0.867 |

— US20200024322A1 (Eli Lilly, published 2020)
